Key:
[1] = molecular target: mAb1 WT (human IgG1 Fc WT) (human, UniProt P01857 = IgG part); assay: SPR
[2] = molecular target: mAb1 WT-AAA (human, UniProt P01857 = IgG part); assay: SPR

B1: TRIM21 PRYSPRY domain (domain or fragment)
chain: GLKKMLRTCAVHITLDPDTANPWLILSEDRRQVRLGDTQQSIPGNEERFDSYPMVLGAQHFHSGKHYWEVDVTGKEAWDLGVCRDSVRRKGHFLLSSKSGFWTIWLWNKQKYEAGTYPQTPLHLQVPPCQVGIFLDYEAGMVSFYNITDHGSLIYSFSECAFTGPLRPFFSPGFNDGGKNTAPLTLCPLNIGSQGSTDY
modifications: biotinylated where it was captured via monovalent streptavidin
[1]
  koff: 0.0994 s⁻¹
[2]
  koff: 0.105 s⁻¹
